Measured values from publication doi:10.1101/2023.09.21.558797 (2023).

B1: GST-Dyn1xA-PRR (full-length proline-rich region of Dynamin 1 splice variant xA, 746-864) [rat] / Amphiphysin 1 (endogenous, rat brain synaptosomes) [rat (endogenous in rat brain synaptosomes)] (parent complex)
chain 1: NTTTVSTPMPPPVDDSWLQVQSVPAGRRSPTSSPTPQRRAPAVPPARPGSRGPAPGPPPAGSALGGAPPVPSRPGASPDPFGPPPQVPSRPNRAPPGVPSRSGQASPSRPESPRPPFDL
chain 2: MADIKTGIFAKNVQKRLNRAQEKVLQKLGKADETKDEQFEEYVQNFKRQEAEGTRLQRELRGYLAAIKGMQEASMKLTESLHEVYEPDWYGREDVKMVGEKCDVLWEDFHQKLVDGSLLTLDTYLGQFPDIKNRIAKRSRKLVDYDSARHHLEALQSSKRKDESRISKAEEEFQKAQKVFEEFNVDLQEELPSLWSRRVGFYVNTFKNVSSLEAKFHKEIAVLCHKLYEVMTKLGDQHADKAFSIQGAPSDSGPLRIAKTPSPPEEASPLPSPTASPNHTLAPASPAPVRPRSPSQTRKGPPVPPLPKVTPTKELQQENIINFFEDNFVPEINVTTPSQNEVLEVKKEETLLDLDFDPFKPDVTPAGSAAATHSPMSQTLPWDLWTTSTDLVQPASGGSFNDFTQPQDTSLFTMQTDQNMAETEQALPTEPQAEEPPTTAAAPTAGLDLGLEMEEPKEEAAIPPGTDAGETVGTEGSTGEEAEAEKAALPAGEGESPEGAKIDVESTELASSESPQAAELEAGAPQEKVIPSVVIEPASNHEGEEHQETTTGTETREATEDVAPQGPAGEKQELATEPTPLDSQAATPAPAGAVDASLSAGDAAQELPPGFLYKVETLHDFEAANSDELTLQRGDVVLVVPSDSEADQDAGWLVGVKESDWLQYRDLATYKGLFPENFTRHLE
B2: GST-Dyn1xA-PRR (full-length proline-rich region of Dynamin 1 splice variant xA, 746-864) [rat] / Endophilin A1 (endogenous, rat brain synaptosomes) [rat (endogenous in rat brain synaptosomes)] (parent complex)
chain 1: B1 chain 1
chain 2: MSVAGLKKQFHKATQKVSEKVGGAEGTKLDDDFKEMERKVDVTSRAVMEIMTKTIEYLQPNPASRAKLSMINTMSKIRGQEKGPGYPQAEALLAEAMLKFGRELGDDCNFGPALGEVGEAMRELSEVKDSLDMEVKQNFIDPLQNLHDKDLREIQHHLKKLEGRRLDFDYKKKRQGKIPDEELRQALEKFDESKEIAESSMFNLLEMDIEQVSQLSALVQAQLEYHKQAVQILQQVTVRLEERIRQASSQPRREYQPKPRMSLEFATGDGTQPNGGLSHTGTPKPAGVQMDQPCCRALYDFEPENEGELGFKEGDIITLTNQIDENWYEGMLHGQSGFFPINYVEILVALPH

Variants of: B1
Experiment: GST pull-down, densitometry of western blots; n=2; parent: 100; read off a plot

Variant	percent of parent [%]
chain 1 NTTTVSTPMPPPVDDSWLQVQSVPAGRREPTSEPTPQRRAPAVPPARPGSRGPAPGPPPAGSALGGAPPVPSRPGASPDPFGPPPQVPSRPNRAPPGVPSRSGQASPSRPESPRPPFDL	~98
chain 1 NTTTVSTPMPPPVDDSWLQVQSVPAGRRSPTSSPTPQRRAPAVPPARPGSRGPAPGPPPAGSALGGAPPVPSRPGASPDPFGPPPQVPSRPNRAPPGVPSRSGQAEPSRPEEPRPPFDL	~90

Variants of: B2
Experiment: as above

Variant	percent of parent [%]
chain 1 S29E, chain 1 S33E	~37
chain 1 S106E, chain 1 S112E	~53
